Data reported in patent US20230243836A1 (published 2023).
One block for each binder: values may come before it.

Columns and labels:
VISTA-Fc fusion protein [1] = target: T1, VISTA-Fc fusion protein (human); test: biosensor, VISTA-Fc immobilized, PSGL-1B in flow (0.3-9.6 µM), HBS with Ca and Mg; equilibrium affinity analysis (1:1 model)
T1 construct: The limits of the VISTA and Fc parts are marked only by underline and bold, which are not preserved
T1 chain: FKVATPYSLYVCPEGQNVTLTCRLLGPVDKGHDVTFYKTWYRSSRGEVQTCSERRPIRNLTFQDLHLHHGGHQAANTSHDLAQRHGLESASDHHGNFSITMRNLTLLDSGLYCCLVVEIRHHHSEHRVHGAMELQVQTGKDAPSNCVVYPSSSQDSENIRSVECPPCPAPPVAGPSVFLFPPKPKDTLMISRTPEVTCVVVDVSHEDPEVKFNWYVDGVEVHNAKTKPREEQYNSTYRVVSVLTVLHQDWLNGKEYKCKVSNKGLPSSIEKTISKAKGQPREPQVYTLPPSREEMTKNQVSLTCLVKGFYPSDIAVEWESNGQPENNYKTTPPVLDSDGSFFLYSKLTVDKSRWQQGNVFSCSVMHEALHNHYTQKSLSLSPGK
Description: (§1) The immobilized VISTA-Fc sample was equilibrated in HEPES buffered saline (HBS) containing calcium (1.5 mM calcium chloride) and magnesium (1.0 mM magnesium chloride). The same buffer was used as running buffer. Samples containing the PSGL-1A or PSGL-1B, which also contained calcium and magnesium, were flowed across a solid surface containing the immobilized VISTA-Fc at a flow rate of 60 μl/min, with 120 seconds of contact time and 300 seconds for dissociation after the surface was regenerated with a 3 second pulse of glycine (pH 1.5). Six difference concentrations of PSGL-1A and PSGL-1B were assayed (0.3 μM, 0.60 μM, 1.20 μM, 2.4 μM, 4.8 μM and 9.6 μM).
(§2) Two different analyses of the experiments were performed: (1) a two-state binding model; and (2) an equilibrium affinity analysis (1:1 model).

VISTA-Fc fusion protein [2] = target: T1, VISTA-Fc fusion protein; test: biosensor, VISTA-Fc immobilized; estimated affinity, called qualitative
VISTA-Fc fusion protein [3] = target: T1, VISTA-Fc fusion protein; test: biosensor, VISTA-Fc immobilized, PSGL-1B in flow (0.3-9.6 µM), HBS with Ca and Mg; two-state binding model
Description: as §1, §2

[4] = target: T2, IgG1-Fc (RED Systems; 110-HG-100) (UniProt P01857-1 100-330 = IgG part); test: Sulfo-SBED photo-crosslinking to HL-60 cells, Protein A pull-down, anti-PSGL-1 Western blot
T2 construct: domain: Fc; Negative control, coupled to Sulfo-SBED; also called negative isotype control IgG-Fc
Description: Also in these experiments, samples of VISTA-Fc fusion protein (described in Example I) and negative controls of an anti-CD28 antibody (BioXcell, BE0248) and IgG1-Fc (RED Systems; 110-HG-100) were covalently coupled to a bifunctional linker (Sulfo-SBED—ThermoFisher Scientific; 33073) using the manufacturing recommended conditions. The resulting samples were incubated with HL-60 cells for 30 min. at room temperature in a dark place. Crosslinking was photoactivated with a UV light source for 20 min. Cells were then lysed and a Protein A Sepharose pull-down was performed. A Western Blot using an anti-PSGL-1 polyclonal antibody (RED Systems; AF3345) or Streptavidin-HRP was performed on the samples.

VISTA-Fc fusion protein [5] = target: T1, VISTA-Fc fusion protein; test: biosensor, VISTA-Fc immobilized, PSGL-1A in flow (0.3-9.6 µM), HBS with Ca and Mg; equilibrium affinity analysis (1:1 model)
Description: as §1, §2

VISTA-Fc fusion protein [6] = target: T1, VISTA-Fc fusion protein; test: biosensor, VISTA-Fc immobilized, PSGL-1A in flow (0.3-9.6 µM), HBS with Ca and Mg; two-state binding model
Description: as §1, §2

Kd (VISTA-Fc fusion protein [1]): 4.76 µM
Kd (VISTA-Fc fusion protein [2]): ~5 µM
Kd (VISTA-Fc fusion protein [3]): 5.09 µM
B1: PSGL-1 construct B (Fc-fused PSGL-1 with IgG kappa signal sequence and tandem repeat unit) (Fc fusion)
chain: DQATEYEYLDYDFLPETEPPEMLRNSTDTTPLTGPGTPESTTVEPAARRSTGLDAGGAVTELTTELANMGNLSTDSAAMEIQTTQPAATEAQTTQPVPTEAQTTPLAATEAQTTRLTATEAQTTPLAATEAQTTPPAATEAQTTQPTGLEAQTTAPAAMEAQTTAPAAMEAQTTPPAAMEAQTTQTTAMEAQTTAPEATEAQTTQPTATEAQTTPLAAMEALSTEPSATEALSMEPTTKRGLFIPFSVSSVTHKGIPMAASNLSVNYPVGAPDHISVARSVECPPCPAPPVAGPSVFLFPPKPKDTLMISRTPEVTCVVVDVSHEDPEVKFNWYVDGVEVHNAKTKPREEQYNSTYRVVSVLTVLHQDWLNGKEYKCKVSNKGLPSSIEKTISKAKGQPREPQVYTLPPSREEMTKNQVSLTCLVKGFYPSDIAVEWESNGQPENNYKTTPPVLDSDGSFFLYSKLTVDKSRWQQGNVFSCSVMHEALHNHYTQKSLSLSPGK
notes: Its limits are marked only by italic, which is not preserved; Cells were co-transfected with GCNT1 and FUT3 glycosyltransferases; also called PSGL-1B

binding result [4]: no binding
B2: P-selectin glycoprotein ligand 1 (PSGL-1) expressed on human cells (receptor)
chain: QATEYEYLDYDFLPETEPPEMLRNSTDTTPLTGPGTPESTTVEPAARRSTGLDAGGAVTELTTELANMGNLSTDSAAMEIQTTQPAATEAQTTPLAATEAQTTRLTATEAQTTPLAATEAQTTPPAATEAQTTQPTGLEAQTTAPAAMEAQTTAPAAMEAQTTPPAAMEAQTTQTTAMEAQTTAPEATEAQTTQPTATEAQTTPLAAMEALSTEPSATEALSMEPTTKRGLFIPFSVSSVTHKGIPMAASNLSVNYPVGAPDHISVKQCLLAILILALVATIFFVCTVVLAVRLSRKGHMYPVRNYSPTEMVCISSLLPDGGEGPSATANGGLSKAKSPGLTPEPREDREGDDLTLHSFLP
notes: Endogenous protein on cells; also called SELPLG; CD162

Kd (VISTA-Fc fusion protein [2]): ~3 µM
Kd (VISTA-Fc fusion protein [5]): 3.01 µM
Kd (VISTA-Fc fusion protein [6]): 32.1 µM
B3: PSGL-1 construct A (Fc-fused PSGL-1 with IgG kappa signal sequence and propeptide sequence) (Fc fusion)
chain: QATEYEYLDYDFLPETEPPEMLRNSTDTTPLTGPGTPESTTVEPAARRSTGLDAGGAVTELTTELANMGNLSTDSAAMEIQTTQPAATEAQTTPLAATEAQTTRLTATEAQTTPLAATEAQTTPPAATEAQTTQPTGLEAQTTAPAAMEAQTTAPAAMEAQTTPPAAMEAQTTQTTAMEAQTTAPEATEAQTTQPTATEAQTTPLAAMEALSTEPSATEALSMEPTTKRGLFIPFSVSSVTHKGIPMAASNLSVARSVECPPCPAPPVAGPSVFLFPPKPKDTLMISRTPEVTCVVVDVSHEDPEVKFNWYVDGVEVHNAKTKPREEQYNSTYRVVSVLTVLHQDWLNGKEYKCKVSNKGLPSSIEKTISKAKGQPREPQVYTLPPSREEMTKNQVSLTCLVKGFYPSDIAVEWESNGQPENNYKTTPPVLDSDGSFFLYSKLTVDKSRWQQGNVFSCSVMHEALHNHYTQKSLSLSPGK
notes: Their limits are marked only by italic and bold, which are not preserved; Cells were co-transfected with GCNT1 and FUT3 glycosyltransferases for post-translational modification; also called PSGL-1A
